In patent US20160083465A1 (AVEO PHARMACEUTICALS, published 2016) one finds Kd, koff and kon data, which are given here for 17 molecules.

The chains are these.
B1: Hu06C11-1 (antibody, human IgG1, kappa)
heavy: not shown
light: DIVMTQSQKFMSTSVGDRVSVTCKASQNVGTNVAWFQQKPGQSPKALIYSASYRYSGVPDRFTGSGSGTDFILTISNVQSEDLAEYFCQQYNNYPLTFGAGTKLELKRTVAAPSVFIFPPSDEQLKSGTASVVCLLNNFYPREAKVQWKVDNALQSGNSQESVTEQDSKDSTYSLSSTLTLSKADYEKHKVYACEVTHQGLSSPVTKSFNRGEC
notes: Mouse variable regions, human IgG1 and kappa constant regions; also called Chimeric 06C11
B2: Hu06C11-27 (antibody, human IgG1, kappa)
heavy: not shown
light: DIQMTQSPSSLSASVGDRVTITCKASQNVGTNVAWFQQKPGKAPKSLIYSASYRYSGVPSRFSGSGSGTDFTLTISSLQPEDFATYYCQQYNNYPLTFGQGTKLEIKRTVAAPSVFIFPPSDEQLKSGTASVVCLLNNFYPREAKVQWKVDNALQSGNSQESVTEQDSKDSTYSLSSTLTLSKADYEKHKVYACEVTHQGLSSPVTKSFNRGEC
notes: Humanized, human IgG1 kappa
B3: Hu01G06-105 (antibody, human IgG1, kappa)
heavy: not shown
light: DIQMTQSPSSLSASVGDRVTITCRTSENLHNYLAWYQQKPGKSPKLLIYDAKTLADGVPSRFSGSGSGTDYTLTISSLQPEDFATYYCQHFWSSPYTFGQGTKLEIKRTVAAPSVFIFPPSDEQLKSGTASVVCLLNNFYPREAKVQWKVDNALQSGNSQESVTEQDSKDSTYSLSSTLTLSKADYEKHKVYACEVTHQGLSSPVTKSFNRGEC
notes: Humanized, human IgG1 kappa; tested in supernatant
B4: Hu01G06-114 (antibody, human IgG1, kappa)
heavy: not shown
light: DIQMTQSPSSLSASVGDRVTITCRTSENLHNYLAWYQQKPGKAPKLLIYDAKTLADGVPSRFSGSGSGTDYTLTISSLQPEDFATYYCQHFWSSPYTFGQGTKLEIKRTVAAPSVFIFPPSDEQLKSGTASVVCLLNNFYPREAKVQWKVDNALQSGNSQESVTEQDSKDSTYSLSSTLTLSKADYEKHKVYACEVTHQGLSSPVTKSFNRGEC
notes: as for B3
B5: Hu01G06-106 (antibody, human IgG1, kappa)
heavy: not shown
light: DIQMTQSPSSLSASVGDRVTITCRTSENLHNYLAWYQQKPGKSPKLLIYDAKTLADGVPSRFSGSGSGTDYTLTISSLQPEDFATYYCQHFWSSPYTFGQGTKLEIKRTVAAPSVFIFPPSDEQLKSGTASVVCLLNNFYPREAKVQWKVDNALQSGNSQESVTEQDSKDSTYSLSSTLTLSKADYEKHKVYACEVTHQGLSSPVTKSFNRGEC
notes: as for B3
B6: Hu01G06-113 (antibody, human IgG1, kappa)
heavy: not shown
light: DIQMTQSPSSLSASVGDRVTITCRTSENLHNYLAWYQQKPGKAPKLLIYDAKTLADGVPSRFSGSGSGTDYTLTISSLQPEDFATYYCQHFWSSPYTFGQGTKLEIKRTVAAPSVFIFPPSDEQLKSGTASVVCLLNNFYPREAKVQWKVDNALQSGNSQESVTEQDSKDSTYSLSSTLTLSKADYEKHKVYACEVTHQGLSSPVTKSFNRGEC
notes: as for B3
B7: Hu01G06-108 (antibody, human IgG1, kappa)
heavy: not shown
light: DIQMTQSPSSLSASVGDRVTITCRTSENLHNYLAWYQQKPGKSPKLLIYDAKTLADGVPSRFSGSGSGTDYTLTISSLQPEDFATYYCQHFWSSPYTFGQGTKLEIKRTVAAPSVFIFPPSDEQLKSGTASVVCLLNNFYPREAKVQWKVDNALQSGNSQESVTEQDSKDSTYSLSSTLTLSKADYEKHKVYACEVTHQGLSSPVTKSFNRGEC
notes: as for B3
B8: Hu01G06-112 (antibody, human IgG1, kappa)
heavy: not shown
light: DIQMTQSPSSLSASVGDRVTITCRTSENLHNYLAWYQQKPGKAPKLLIYDAKTLADGVPSRFSGSGSGTDYTLTISSLQPEDFATYYCQHFWSSPYTFGQGTKLEIKRTVAAPSVFIFPPSDEQLKSGTASVVCLLNNFYPREAKVQWKVDNALQSGNSQESVTEQDSKDSTYSLSSTLTLSKADYEKHKVYACEVTHQGLSSPVTKSFNRGEC
notes: as for B3
B9: Hu01G06-111 (antibody, human IgG1, kappa)
heavy: not shown
light: DIQMTQSPSSLSASVGDRVTITCRTSENLHNYLAWYQQKPGKAPKLLIYDAKTLADGVPSRFSGSGSGTDYTLTISSLQPEDFATYYCQHFWSSPYTFGQGTKLEIKRTVAAPSVFIFPPSDEQLKSGTASVVCLLNNFYPREAKVQWKVDNALQSGNSQESVTEQDSKDSTYSLSSTLTLSKADYEKHKVYACEVTHQGLSSPVTKSFNRGEC
notes: as for B3
B10: Hu01G06-100 (antibody, human IgG1, kappa)
heavy: not shown
light: DIQMTQSPSSLSASVGDRVTITCRTSENLHNYLAWYQQKPGKSPKLLVYDAKTLADGVPSRFSGSGSGTDYTLTISSLQPEDFATYYCQHFWSSPYTFGQGTKLEIKRTVAAPSVFIFPPSDEQLKSGTASVVCLLNNFYPREAKVQWKVDNALQSGNSQESVTEQDSKDSTYSLSSTLTLSKADYEKHKVYACEVTHQGLSSPVTKSFNRGEC
notes: as for B3
B11: Hu01G06-101 (antibody, human IgG1, kappa)
heavy: not shown
light: DIQMTQSPSSLSASVGDRVTITCRTSENLHNYLAWYQQKPGKSPKLLVYDAKTLADGVPSRFSGSGSGTDYTLTISSLQPEDFATYYCQHFWSSPYTFGQGTKLEIKRTVAAPSVFIFPPSDEQLKSGTASVVCLLNNFYPREAKVQWKVDNALQSGNSQESVTEQDSKDSTYSLSSTLTLSKADYEKHKVYACEVTHQGLSSPVTKSFNRGEC
notes: as for B3
B12: Hu01G06-104 (antibody, human IgG1, kappa)
heavy: not shown
light: DIQMTQSPSSLSASVGDRVTITCRTSENLHNYLAWYQQKPGKSPKLLVYDAKTLADGVPSRFSGSGSGTDYTLTISSLQPEDFATYYCQHFWSSPYTFGQGTKLEIKRTVAAPSVFIFPPSDEQLKSGTASVVCLLNNFYPREAKVQWKVDNALQSGNSQESVTEQDSKDSTYSLSSTLTLSKADYEKHKVYACEVTHQGLSSPVTKSFNRGEC
notes: as for B3
B13: Hu01G06-107 (antibody, human IgG1, kappa)
heavy: not shown
light: DIQMTQSPSSLSASVGDRVTITCRTSENLHNYLAWYQQKPGKSPKLLIYDAKTLADGVPSRFSGSGSGTDYTLTISSLQPEDFATYYCQHFWSSPYTFGQGTKLEIKRTVAAPSVFIFPPSDEQLKSGTASVVCLLNNFYPREAKVQWKVDNALQSGNSQESVTEQDSKDSTYSLSSTLTLSKADYEKHKVYACEVTHQGLSSPVTKSFNRGEC
notes: as for B3
B14: Hu01G06-103 (antibody, human IgG1, kappa)
heavy: not shown
light: DIQMTQSPSSLSASVGDRVTITCRTSENLHNYLAWYQQKPGKSPKLLVYDAKTLADGVPSRFSGSGSGTDYTLTISSLQPEDFATYYCQHFWSSPYTFGQGTKLEIKRTVAAPSVFIFPPSDEQLKSGTASVVCLLNNFYPREAKVQWKVDNALQSGNSQESVTEQDSKDSTYSLSSTLTLSKADYEKHKVYACEVTHQGLSSPVTKSFNRGEC
notes: as for B3
B15: Hu01G06-110 (antibody, human IgG1, kappa)
heavy: not shown
light: DIQMTQSPSSLSASVGDRVTITCRTSENLHNYLAWYQQKPGKAPKLLIYDAKTLADGVPSRFSGSGSGTDYTLTISSLQPEDFATYYCQHFWSSPYTFGQGTKLEIKRTVAAPSVFIFPPSDEQLKSGTASVVCLLNNFYPREAKVQWKVDNALQSGNSQESVTEQDSKDSTYSLSSTLTLSKADYEKHKVYACEVTHQGLSSPVTKSFNRGEC
notes: as for B3
B16: Hu01G06-109 (antibody, human IgG1, kappa)
heavy: not shown
light: DIQMTQSPSSLSASVGDRVTITCRTSENLHNYLAWYQQKPGKSPKLLIYDAKTLADGVPSRFSGSGSGTDYTLTISSLQPEDFATYYCQHFWSSPYTFGQGTKLEIKRTVAAPSVFIFPPSDEQLKSGTASVVCLLNNFYPREAKVQWKVDNALQSGNSQESVTEQDSKDSTYSLSSTLTLSKADYEKHKVYACEVTHQGLSSPVTKSFNRGEC
notes: as for B3
B17: Hu01G06-102 (antibody, human IgG1, kappa)
heavy: not shown
light: DIQMTQSPSSLSASVGDRVTITCRTSENLHNYLAWYQQKPGKSPKLLVYDAKTLADGVPSRFSGSGSGTDYTLTISSLQPEDFATYYCQHFWSSPYTFGQGTKLEIKRTVAAPSVFIFPPSDEQLKSGTASVVCLLNNFYPREAKVQWKVDNALQSGNSQESVTEQDSKDSTYSLSSTLTLSKADYEKHKVYACEVTHQGLSSPVTKSFNRGEC
notes: as for B3

For one assay, the target named is T1, mouse IgG1 Fc-mature human GDF15 fusion protein (mFc-rhGDF15) (mouse; human).
T1 construct: Made in CHOK1SV cells, purified by Protein A and size exclusion; also called mouse Fc fused to human GDF15
T1 chain: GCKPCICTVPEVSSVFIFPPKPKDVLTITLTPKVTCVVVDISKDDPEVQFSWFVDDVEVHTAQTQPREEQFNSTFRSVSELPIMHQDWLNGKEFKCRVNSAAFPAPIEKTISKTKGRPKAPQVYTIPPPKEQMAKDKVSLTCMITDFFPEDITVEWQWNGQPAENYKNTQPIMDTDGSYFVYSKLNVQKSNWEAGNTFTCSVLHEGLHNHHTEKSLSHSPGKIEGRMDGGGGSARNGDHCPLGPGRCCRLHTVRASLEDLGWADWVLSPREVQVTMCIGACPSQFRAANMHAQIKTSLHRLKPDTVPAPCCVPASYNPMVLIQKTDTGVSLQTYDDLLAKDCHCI
The assay is described as follows: SPR Biacore T100, 37 C, purified antibody captured by anti-human IgG Fc, antigen in solution. On the procedure:
Goat anti-human IgGs (Fc fragment specific, Jackson ImmunoResearch, West Grove, Pa.) were immobilized on carboxymethylated dextran CM4 sensor chips by amine coupling, according to a standard protocol. Analyses were performed at 37° C. using PBS containing 0.05% surfactant P20 as running buffer. The antibodies were captured in individual flow cells at a flow rate of 10 μL/minute. Injection time was varied for each antibody to yield an Rmax between 30 and 60 RU. […] The dissociation phase was monitored for up to 1200 seconds. The surface was then regenerated with two 60-second injections of 10 mM Glycine-HCl, pH 2.25, at a flow rate of 30 μL/minute.
Kinetic parameters were determined using the kinetic function of the BIAevaluation software (GE Healthcare) with double reference subtraction.
(Surface plasmon resonance follows binding to a sensor surface in real time, without labels.)
B1: binding was put at a Kd of 0.18 nM, the koff came out at 0.00084 s⁻¹ and the kon came to 5.3e+06 M⁻¹ s⁻¹.
Taken in the same sequence, the figures for B2 were 0.18 nM, 0.00082 s⁻¹ and 4.7e+06 M⁻¹ s⁻¹.

The next assay deals with T1, mouse IgG1 Fc-mature human GDF15 fusion …. Description: SPR Biacore T100, 37 C, antibody from supernatant captured by anti-human IgG Fc, antigen in solution.
As to B3, the Kd was found to be 0.13 nM, the koff came out at 0.00056 s⁻¹ and the kon was 4.3e+06 M⁻¹ s⁻¹.
B4: binding was put at a Kd of 0.13 nM, the dissociation rate constant (koff) amounted to 0.00054 s⁻¹ and the kon amounted to 4.5e+06 M⁻¹ s⁻¹.
For B5, the Kd was determined as 0.16 nM, the koff came to 0.0007 s⁻¹ and the kon stood at 4.3e+06 M⁻¹ s⁻¹.
Taken in the same sequence, the figures for B6 were 0.11 nM, 0.00048 s⁻¹ and 4.5e+06 M⁻¹ s⁻¹.
Taken in the same sequence, the figures for B7 were 0.12 nM, 0.00046 s⁻¹ and 4.2e+06 M⁻¹ s⁻¹.
The molecule B8 gave a Kd of 0.12 nM, a koff of 0.00053 s⁻¹ and a kon of 4.7e+06 M⁻¹ s⁻¹.
Taken in the same sequence, the figures for B9 were 0.16 nM, 0.00066 s⁻¹ and 4.3e+06 M⁻¹ s⁻¹.
Taken in the same sequence, the figures for B10 were 0.15 nM, 0.00062 s⁻¹ and 4.1e+06 M⁻¹ s⁻¹.
In the same order, the values of B11 are 0.14 nM, 0.00063 s⁻¹ and 4.4e+06 M⁻¹ s⁻¹.
In turn, B12 had a Kd of 0.12 nM, a dissociation rate constant (koff) of 0.00052 s⁻¹ and a kon of 4.5e+06 M⁻¹ s⁻¹.
Turning to B13, the dissociation constant Kd came to 0.12 nM, the koff was determined as 0.00047 s⁻¹ and the kon came to 4.1e+06 M⁻¹ s⁻¹.
For the molecule B14, the Kd was found to be 0.11 nM, the koff is 0.00047 s⁻¹ and the kon is 4.4e+06 M⁻¹ s⁻¹.
In the same order, the values of B15 are 0.14 nM, 0.00058 s⁻¹ and 4.3e+06 M⁻¹ s⁻¹.
Taken in the same sequence, the figures for B16 were 0.13 nM, 0.00056 s⁻¹ and 4.6e+06 M⁻¹ s⁻¹.
In turn, B17 gave an equilibrium dissociation constant (Kd) of 0.11 nM, a koff of 0.00046 s⁻¹ and an association rate constant (kon) of 4.4e+06 M⁻¹ s⁻¹.

Broadly, the Kd is the constant that tells how readily two partners part at equilibrium. The term koff denotes a measure of how fast the partners let go of each other. A lower koff goes with slow dissociation. The kon is a measure of how fast the partners come together.
